Measured values from US20150037332A1, “TREATMENT OF METASTIC BREAST CANCER” (GENENTECH, INC., priority 2008, published 2015).

Key:
[1] = Phase II single-agent studies TOC2689g and BO16934 taken together, serum pharmacokinetics; type: in vivo, human
From the text: (§1) Population PK modeling of data from Phase Ia and Phase II studies support the continued use of fixed, non-weight-based dosing in female patients.
(§2) Mean serum Cmin and Cmax for the first two cycles of treatment in ovarian and metastatic breast cancer (MBC) patients are presented in Table 3.
(§3) PK parameters were estimated using a two-compartment model (see Table 4).

[2] = Phase II study with gemcitabine in platinum-resistant ovarian cancer (TOC3258g), PK; type: in vivo, human
[3] = test system: previously treated HER2-positive metastatic breast cancer; conditions: in combination with trastuzumab; 11 patients enrolled; cited from earlier work
[4] = Multi-dose intravenous toxicity and toxicokinetic studies (Studies 00-377-1821 and 01-458-1821), cardiac endpoints; type: in vivo; conditions: 7-week and 26-week intravenous studies, cynomolgus monkeys
Method: In a 7-week intravenous toxicity and toxicokinetic study in cynomolgus monkeys with a 4-week recovery period (Study 00-377-1821), telemetry was measured in two animals per sex in the control and high-dose (150 mg/kg/dose) groups to collect electrocardiographic endpoints. At two timepoints before the initiation of treatment, and on Days 1 and 28, telemetered animals had systolic, diastolic, and mean arterial blood pressure, heart rate, PR interval, QRS, QT, and Lead II ECG data recorded. Four 1-minute tracings were collected for each animal from 2 to 22 hours after dosing and interpreted by a board-certified veterinary cardiologist. In addition to the routine serum chemistry parameters evaluated, serum was also analyzed for creatinine kinase isozymes and Troponin T on Study Days 2/3 and 44/45 for all animals. […] Recordings were taken at two timepoints before the initiation of treatment and once during Weeks 4, 16, and 26 on anesthetized animals and were interpreted by a board-certified veterinary cardiologist. In addition to the routine serum chemistry parameters evaluated, serum was also analyzed for Troponin T on Day 1 predose and on Days 114, 184, and 239 (recovery) for all animals.

[5] = cited from earlier work
[6] = test system: incurable, locally advanced, recurrent or metastatic solid tumors; conditions: cited from earlier work
[7] = Clinical trials as of November 2006, torsades de pointes; type: in vivo, human; conditions: pertuzumab-treated patients
[8] = test system: non-small cell lung cancer (NSCLC) and breast cancer tumors (low and high HER2 expression levels); assay: Nonclinical dose-response xenograft studies; type: in vivo; conditions: nude mice, NSCLC and breast cancer xenografts
[9] = Phase Ib combination studies with capecitabine (BO17003) and docetaxel (BO17021), PK; type: in vivo, human
From the text: In both studies, the PK parameters for pertuzumab were similar to the PK parameters obtained in single-agent pertuzumab studies.

[10] = Phase II single-agent Study TOC2689g (ovarian cancer), serum pharmacokinetics; type: in vivo, human; conditions: for CL, systemic clearance (mean ± SD) / Vc, volume of central compartment (mean ± SD) / Vss, steady-state volume of distribution (mean ± SD) / t1/2 initial, initial distribution half-life (mean ± SD) / t1/2 terminal, terminal half-life (mean ± SD): intravenous infusion, 2-compartment population PK model
From the text: as §2, §3

[11] = Previous pertuzumab studies, PK summary (two-compartment model); type: in vivo, human
From the text: as §1

[12] = Phase II single-agent Study BO16934 (metastatic breast cancer), serum pharmacokinetics; type: in vivo, human; conditions: for CL, systemic clearance (mean ± SD) / Vc, volume of central compartment (mean ± SD) / Vss, steady-state volume of distribution (mean ± SD) / t1/2 initial, initial distribution half-life (mean ± SD) / t1/2 terminal, terminal half-life (mean ± SD): intravenous infusion, 2-compartment population PK model
From the text: as §2, §3

[13] = Preliminary population PK analysis of Studies TOC2297g, TOC2689g and B016934; type: in vivo, human; conditions: 153 patients, 1458 concentration-timepoints
[14] = two-compartment model, Studies TOC2689g and BO16934
[15] = Phase I, intravenously every 3 weeks
[16] = two-compartment model, typical patient

pertuzumab: antibody comprising the light and heavy chain amino acid sequences in SEQ ID NOs. 7 and 8; HER dimerization inhibitor binding HER2
steady-state serum Cmin ([1]; 840 mg loading dose, 420 mg maintenance dose every 3 weeks, by the second treatment cycle): approximately 60 mg/mL | attainment of steady-state Cmin and Cmax ([1]; loading dose 840 mg followed by 420 mg every 3 weeks): by the second cycle | mean systemic clearance, range over dose groups [1, 14]: 0.225 to 0.285 L/day | mean volume of distribution of the central compartment, range over dose groups [1, 14]: 2.70 to 3.11 L | serum concentrations of pertuzumab compared with single-agent Phase II studies ([2]; in combination with gemcitabine): similar | effect on the PK of gemcitabine or its major metabolite, dFdU ([2]; preliminary PK analysis): does not alter the PK | partial response (PR) [3]: Two out of the 11 | ECGs, blood pressures, and heart rates [4]: normal | cardiac injury caused by treatment, by histopathology [4]: no evidence of cardiac injury | serum chemistry parameters (Troponin T and creatine kinase isozymes) [4]: lack of increases | antibodies to pertuzumab ([5]; Phase I patients): not detected | linearity of pharmacokinetics ([5]; doses of 2.0-15 mg/kg): linear | confirmed partial responses [6, 15]: Two | tumor regression, patients evaluable for response [6, 15]: 3 of 20 | tolerability ([6]; given intravenously every 3 weeks): generally well tolerated | association with an increase of TdP [7]: no association noted | steady-state trough concentrations at which >80% suppression of tumor growth was achieved [8]: 5 to 25 µg/mL | suppression of tumor growth ([8]; steady-state trough concentrations 5-25 μg/mL): > 80% | effect on the PK of capecitabine and docetaxel ([9]; Phase Ib Studies BO17003 (capecitabine) and BO17021 (docetaxel)): does not alter the PK | PK parameters for pertuzumab compared with single-agent pertuzumab studies ([9]; in combination with capecitabine or docetaxel): similar | Cmax, mean peak serum concentration ([10]; 420 mg (n = 61), Cycle 1): 231.7 µg/mL | Cmin, mean (±SD) trough serum concentration ([10]; 420 mg (n = 61), Cycle 1): 64.6 (±20.9) μg/mL | Cmax, mean peak serum concentration ([10]; 420 mg (n = 61), Cycle 2): 237.6 µg/mL | Cmin, mean (±SD) trough serum concentration ([10]; 420 mg (n = 61), Cycle 2): 66.5 (±38.0) μg/mL | CL, systemic clearance (mean ± SD) ([10]; 420 mg (n = 61)): 0.244 ± 0.095 L/day | Vc, volume of central compartment (mean ± SD) ([10]; 420 mg (n = 61)): 2.70 ± 0.39 L | Vss, steady-state volume of distribution (mean ± SD) ([10]; 420 mg (n = 61)): 4.73 ± 0.78 L | t1/2 initial, initial distribution half-life (mean ± SD) ([10]; 420 mg (n = 61)): 32.9 ± 2.88 h | t1/2 terminal, terminal half-life (mean ± SD) ([10]; 420 mg (n = 61)): 389 ± 113 h | Cmax, mean peak serum concentration ([10]; 1050 mg (n = 62), Cycle 1): 390.9 µg/mL | Cmin, mean (±SD) trough serum concentration ([10]; 1050 mg (n = 62), Cycle 1): 90.1 (±68.1) μg/mL | Cmax, mean peak serum concentration ([10]; 1050 mg (n = 62), Cycle 2): 357.2 µg/mL | Cmin, mean (±SD) trough serum concentration ([10]; 1050 mg (n = 62), Cycle 2): 94.7 (±47.3) μg/mL | CL, systemic clearance (mean ± SD) ([10]; 1050 mg (n = 62)): 0.285 ± 0.119 L/day | Vc, volume of central compartment (mean ± SD) ([10]; 1050 mg (n = 62)): 3.11 ± 0.72 L | Vss, steady-state volume of distribution (mean ± SD) ([10]; 1050 mg (n = 62)): 5.39 ± 1.31 L | t1/2 initial, initial distribution half-life (mean ± SD) ([10]; 1050 mg (n = 62)): 32.2 ± 2.64 h | t1/2 terminal, terminal half-life (mean ± SD) ([10]; 1050 mg (n = 62)): 379 ± 125 h | impact on the PK of co-administered chemotherapeutic agents ([11]; docetaxel and capecitabine in Phase Ib studies, gemcitabine in a Phase II study): no evidence that pertuzumab impacted the PK | change in clearance with dose ([11]; doses from 2.0 to 15.0 mg/kg): no change in clearance | systemic serum clearance [11, 16]: approximately 0.24 L/day | terminal half-life [11, 16]: approximately 17 days | Cmax, mean peak serum concentration ([12]; 420 mg (n = 40), Cycle 1): 202.9 µg/mL | Cmin, mean (±SD) trough serum concentration ([12]; 420 mg (n = 40), Cycle 1): 56.5 (±21.2) μg/mL | Cmax, mean peak serum concentration ([12]; 420 mg (n = 40), Cycle 2): 181.2 µg/mL | Cmin, mean (±SD) trough serum concentration ([12]; 420 mg (n = 40), Cycle 2): 62.6 (±21.1) μg/mL | CL, systemic clearance (mean ± SD) ([12]; 420 mg (n = 40)): 0.255 ± 0.096 L/day | Vc, volume of central compartment (mean ± SD) ([12]; 420 mg (n = 40)): 2.98 ± 0.67 L | Vss, steady-state volume of distribution (mean ± SD) ([12]; 420 mg (n = 40)): 5.12 ± 0.98 L | t1/2 initial, initial distribution half-life (mean ± SD) ([12]; 420 mg (n = 40)): 32.6 ± 3.12 h | t1/2 terminal, terminal half-life (mean ± SD) ([12]; 420 mg (n = 40)): 391 ± 84 h | Cmax, mean peak serum concentration ([12]; 1050 mg (n = 35), Cycle 1): 425.6 µg/mL | Cmin, mean (±SD) trough serum concentration ([12]; 1050 mg (n = 35), Cycle 1): 75.9 (±34.5) μg/mL | Cmax, mean peak serum concentration ([12]; 1050 mg (n = 35), Cycle 2): 542.9 µg/mL | Cmin, mean (±SD) trough serum concentration ([12]; 1050 mg (n = 35), Cycle 2): 136.6 (±53.5) μg/mL | CL, systemic clearance (mean ± SD) ([12]; 1050 mg (n = 35)): 0.225 ± 0.121 L/day | Vc, volume of central compartment (mean ± SD) ([12]; 1050 mg (n = 35)): 2.95 ± 0.81 L | Vss, steady-state volume of distribution (mean ± SD) ([12]; 1050 mg (n = 35)): 5.11 ± 1.12 L | t1/2 initial, initial distribution half-life (mean ± SD) ([12]; 1050 mg (n = 35)): 33.4 ± 3.6 h | t1/2 terminal, terminal half-life (mean ± SD) ([12]; 1050 mg (n = 35)): 492 ± 194 h | population variability of steady-state trough concentration and exposure with fixed-dosing, body surface area-based dosing, and weight-based dosing [13]: similar
